According to US20250092154A1 (UCI THERAPEUTICS, published 2025):

Assays:
MSLN mature form-his [1] = target: T1, MSLN mature form-his (human, UniProt Q13421 296-598, biotinylated (site not stated) in the ELISA of Example 2; detected with SA-APC in the yeast single-clone FACS); assay: Direct-binding ELISA: scFv coated on the plate, biotinylated MSLN mature form-his titrated, streptavidin-HRP, A450; the half-maximal value is headed 'IC50 (M)' in the drawn table, row 'Mature MSLN'
T1 construct: also called mesothelin mature form-his antigen; biotinylated MSLN-his; not shown: His tag
Description: (§1) 100 ng of the scFv protein purified in Example 1 was added to each well of a plate and refrigerated for 15 hours, thereby coating the plate with the protein. After incubation, each well was blocked with 200 μL of PBS (3% BSA) for 1 hour at room temperature. Biotinylated MSLN-his protein was serially diluted 1/5 from 10⁻⁶ M and then bound to the anti-MSLN scFv, coated on the ELISA plate, for 1 hour at room temperature. Each well was washed three times with PBST (0.05% tween 20) wash buffer, and then treated with HRP-conjugated streptavidin (Abcam) (diluted 40,000:1) for detection of biotinylated […] and incubated at room temperature for 1 hour. Each well was washed three times with PBST (0.05% tween20) wash buffer, and then treated with TMB and incubated at room temperature for 20 minutes. After treatment with 2M H₂SO₄, the absorbance at 450 nm was measured.

MSLN mature form-his [2] = target: T1, MSLN mature form-his; assay: Direct-binding ELISA: scFv coated on the plate, biotinylated MSLN mature form-his titrated (M), streptavidin-HRP, A450
Description: as §1

[3] = target: T2, biotinylated mesothelin of SEQ ID NO: 1 (human, UniProt Q13421 296-598, biotinylated (site not stated)); assay: FACS of 293T cells transduced with the #19-1 CAR, biotinylated mature mesothelin plus PE-streptavidin (B4-A vs SSC-A)
T2 construct: also called biotinylated mature form of the mesothelin antigen
Description: The generated cells were cultured for 2 days. […] Then, biotin was fluorescently labeled using PE-conjugated streptavidin protein and FACS analysis was performed.

MSLN (ACRO) = target: T3, MSLN (ACRO) (human, UniProt Q13421, PE-conjugated (site not given)); assay: FACS of PBNK cells transduced with the #19-1 CAR, stained with PE-conjugated MSLN antigen 'MSLN (ACRO)' (B4-A vs SSC-A); also printed as 26%; Mock (empty vector) cells 0.24
T3 construct: soluble antigen, PE-conjugated; also called PE-conjugated MSLN antigen
From the text: A mesothelin-specific chimeric antigen receptor construct virus was produced in the same manner as in Example 8 above, and then natural killer cells were used as immune 5 effector cells to be genetically engineered to express the chimeric antigen receptor. As such natural killer cells, PBMC (Human PB MNC) cells were purchased from StemCell, cultured for 10 days, and used after differentiation into PBNK cells. PBMC and PBNK cells, as well as lentivirus-transduced PBNK cells described below, were all cultured in NK MACS medium containing 100 µg/mL of streptomycin, 100 units/mL of penicillin, 10 ng/mL of rhIL-15, and 500 IU of rhIL-2. Culture of all cells was performed in a 5% CO₂ (95% air) environment at 37° C. For expression of the mesothelin-specific CAR, 5×10⁵ PBNK cells and the produced antigen receptor construct virus with an MOI of 2 were added to a 24-well plate, and then for induction of transduction, PGE2 (prostaglandin E2) and LentiBOOST (lentiviral gene transfer inducer) were used, thereby generating NK cells expressing the mesothelin-specific CAR. […]

[4] = target: T4, recombinant human mature MSLN (SEQ ID NO: 1) (human, UniProt Q13421 296-598); assay: SPR, mature MSLN immobilized on CM5 chip, #19-1 scFv-Fc injected in two-fold dilutions, 1:1 depletion corrected binding model
T4 construct: Immobilized by amide coupling on a CM5 chip for SPR; also called mesothelin; recombinant human mesothelin protein antigen
Description: The binding affinity of the humanized antibody #19-1 purified in Example 6 to mesothelin was evaluated by surface plasmon resonance (SPR) method. First, recombinant human mature MSLN (SEQ ID NO: 1) was immobilized by an amide bond on the surface of a carboxymethyldextran (CM5) chip at densities of about 560 RU and 520 RU. Next, two-fold serial dilutions of humanized antibody #19-1 were injected at a constant flow rate. The association and dissociation rates of the protein complex (complex of humanized antibody #19-1 and mature MSLN) were monitored for 180 and 540 seconds, respectively. Referencing was performed on a blank flow cell. Finally, the binding affinity of humanized antibody #19-1 to mesothelin was determined using the 1:1 depletion corrected binding model.

T1 sequence (Q13421 other isoform, or with tags, fused parts or gaps limits assumed): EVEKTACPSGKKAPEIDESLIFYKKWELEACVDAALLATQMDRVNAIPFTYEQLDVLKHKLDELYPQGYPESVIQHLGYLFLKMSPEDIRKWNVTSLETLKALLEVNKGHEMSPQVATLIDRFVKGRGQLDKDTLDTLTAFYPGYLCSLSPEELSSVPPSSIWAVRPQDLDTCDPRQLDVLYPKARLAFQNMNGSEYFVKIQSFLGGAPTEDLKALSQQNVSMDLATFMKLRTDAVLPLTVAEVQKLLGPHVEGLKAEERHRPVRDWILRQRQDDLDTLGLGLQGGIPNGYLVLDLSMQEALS
T3 sequence (Q13421 other isoform, or with tags, fused parts or gaps limits assumed): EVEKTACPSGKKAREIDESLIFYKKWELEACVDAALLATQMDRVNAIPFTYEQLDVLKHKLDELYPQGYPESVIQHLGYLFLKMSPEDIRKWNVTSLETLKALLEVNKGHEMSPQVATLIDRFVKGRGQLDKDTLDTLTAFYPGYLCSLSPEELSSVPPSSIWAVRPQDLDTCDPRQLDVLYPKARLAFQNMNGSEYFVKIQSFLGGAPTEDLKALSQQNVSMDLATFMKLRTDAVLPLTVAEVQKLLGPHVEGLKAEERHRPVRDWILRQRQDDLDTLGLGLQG

Binder | IC50 (MSLN mature form-his [1]) [nM] | EC50 (read off the curve) (MSLN mature form-his [2]) [nM] | % Parent in gate P4 (cells binding 'Mature MSLN') [3] [%] | % Parent in gate P24 (MSLN (ACRO)) [%] | Kd [4] [nM]
humanized antibody #19-1 (#19-1 scFv-Fc) (Fc fusion, Expressed in ExpiCHO as #19-1 scFv-Fc and purified by protein A and SEC; also called humanized scFv #19-1; scFv antibody #19-1; not shown: Human IgG-Fc tag fused C-terminal to the scFv, and any hinge or linker to it) scFv: EIVLTQSPATLSLSPGERATLSCSASSSVSYMHWYQQKPGQAPRLLIYDTSKLASGIPARFSGSGSGTDFTLTISSLEPEDFAVYYCQQWSSNPLTFGQGTKLEIKRGGGGSGGGGSGGGGSQVQLVQSGAEVKKPGASVKVSCKASGYTFTDYNMNWVRQAPGQGLEWMGVINPNYGTTSYNQKFKGRVTMTRDTSTSTVYMELSSLRSEDTAVYYCARGDYDGAGFAYWGQGTLVTVSS | – | – | – | – | 80.8
mesothelin-specific scFv #19 (purified from E. coli) (scFv, also called mouse scFv #19; anti-MSLN scFv; not shown: His tag (Ni-NTA purification, anti-HISx6 detection) and any other pmopac12 vector tag) scFv: DIVITQSPAIMSASPGEKVTMTCSASSSVSYMHWYQQKSGTSPKRWIYDTSKLASGVPARFSGSGSGTSYSLTISSMEAEDAATYYCQQWSSNPLTFGAGTKLEIKRGGGGSGGGGSGGGGSQVQLQQSGPELVKPGASVKISCKASGYSFTDYNMNWVKQSNGKSLEWIGVINPNYGTTSYNQKFKGKATITADTSSNTAYLQLSSLTSEDSAVYYCAKGDYDGAGFAYWGQGTLVTVSA | 2.43 | ~3 | – | – | –

Next, values leading:

IC50 (MSLN mature form-his [1]) [nM] | EC50 (read off the curve) (MSLN mature form-his [2]) [nM] | % Parent in gate P4 (cells binding 'Mature MSLN') [3] [%] | % Parent in gate P24 (MSLN (ACRO)) [%] | Kd [4] [nM] | Binder
9.43 | ~8 | – | – | – | mesothelin-specific scFv #45 (purified from E. coli) (scFv, also called anti-MSLN scFv; not shown: His tag (Ni-NTA purification, anti-HISx6 detection) and any other pmopac12 vector tag) scFv: DIVLTQSPAIMSTSPGEKVTMTCTASSSVSYMHWYQQKSGTSPKRWIYDTSKLASGVPARFSGSGSGTSYSLTISRMEAEDAATYYCQQWSSYPLTFGAGTKLEMKRGGGGSGGGGSGGGGSQVQLQQPGAELVKPGASVKLSCKASGYTFTSYWMHWVKQRPGQGLEWIGMIHPNSGGTNYNEKFKSKATLTVDKSSSTAYMQLSSLTSEDSAVYYCARYYYGNYVWYFDVWGTGTTVTVSA
– | – | 54.8 | 25.6 | – | mesothelin-specific CAR comprising humanized scFv #19-1, on cells (293T cells; PBNK cells) (receptor, also called #19-1 CAR; MSLN-CAR) EIVLTQSPATLSLSPGERATLSCSASSSVSYMHWYQQKPGQAPRLLIYDTSKLASGIPARFSGSGSGTDFTLTISSLEPEDFAVYYCQQWSSNPLTFGQGTKLEIKRGGGGSGGGGSGGGGSQVQLVQSGAEVKKPGASVKVSCKASGYTFTDYNMNWVRQAPGQGLEWMGVINPNYGTTSYNQKFKGRVTMTRDTSTSTVYMELSSLRSEDTAVYYCARGDYDGAGFAYWGQGTLVTVSSTTTPAPRPPTPAPTIASQPLSLRPEACRPAAGGAVHTRGLDFACDIYIWAPLAGTCGVLLLSLVITLYCKRGRKKLLYIFKQPFMRPVQTTQEEDGCSCRFPEEEEGGCELRVKFSRSADAPAYKQGQNQLYNELNLGRREEYDVLDKRRGRDPEMGGKPRRKNPQEGLYNELQKDKMAEAYSEIGMKGERRRGKGHDGLYQGLSTATKDTYDALHMQALPPR
